Broadly, the stoichiometry N is a count of units in the complex or per binding partner.

Data set [1] deals with the molecule itself. Briefly: cross-linking.
Data set [2] deals with the molecule itself. Nature of the data set: crystal structure.

B1: MgtE ΔN T336C/L421C (TtMgtE 130-450, T336C/L421C) (domain or fragment, Thermus thermophilus, UniProt Q5SMG8 130-450, looked up)
chain: EEDEAGGLMTPEYVAVREGMTVEEVLRFLRRAAPDAETIYYIYVVDEKGRLKGVLSLRDLIVADPRTRVAEIMNPKVVYVRTDTDQEEVARLMADYDFTVLPVVDEEGRLVGIVTVDDVLDVLEAEATEDIHKLGAVDVPDLVYSEAGPVALWLARVRWLVILILTGMVTSSILQGFESVLEAVTALAFYVPVLLGTGGNTGNQSACLIIRALATRDLDLRDWRRVFLKEMGVGLLLGLTLSFLLVGKVYWDGHPLLLPVVGVSLVLIVFFANLVGAMLPFLLRRLGVDPACVSNPLVATLSDVTGLLIYLSVARLLLEAV
For the protein B1, in data set [1], the “stoichiometry N” value worked out at 2.

B2: Thermus thermophilus MgtE transmembrane (TM) domain (TtMgtE 268-450) (domain or fragment, UniProt Q5SMG8 268-450, looked up)
chain: VPDLVYSEAGPVALWLARVRWLVILILTGMVTSSILQGFESVLEAVTALAFYVPVLLGTGGNTGNQSATLIIRALATRDLDLRDWRRVFLKEMGVGLLLGLTLSFLLVGKVYWDGHPLLLPVVGVSLVLIVFFANLVGAMLPFLLRRLGVDPALVSNPLVATLSDVTGLLIYLSVARLLLEAV
As for B2, the binding result in data set [2] is reported as “binds”.

(Values after article PMC9708914 (iScience, 2022).)
